Consider 56 variants from the RNAGym collection of RNA variant scans (doi:10.7554/elife.90254).

B1: LINE1-mini (parent)
chain: GGCAGAGCUCAACACAGCGUGGCAAAGUGGCUGUGGCUAGACUGCC

This series covers variants of B1. The series can be described thus: self-cleavage, relative activity (ratio to wild type); higher = more cleavage; in vitro, sequencing; the parent is a self-cleaving ribozyme.
As to GGCAGAGCUCAACACAGCGGGGCAAAGUGGCUGUGGCUAGACUGCC [U20G], the self-cleavage is 0.69.

For GGCAGAGCUCAACACAGCGGGGCAAAGUGGCUGUGGCUAGAGUGCC [U20G C42G], the self-cleavage came out at 0.14.

Turning to GGCAGAGCUCAACACAGCGGGGCAAAGUGGCUGUGGCUAGAUUGCC [U20G C42U], the self-cleavage is 0.17.

On to GGCAGAGCUCAACACAGCGGGGCAAAGUGGCUGUGGCUAGAAUGCC [U20G C42A], for which the self-cleavage worked out at 0.1.

In the case of GGCAGAGCUCAACACAGCGGGGCAAGGUGGCUGUGGCUAGACUGCC [U20G A26G], the self-cleavage was found to be 0.43.

For the variant GGCAGAGCUCAACACAGCGGGGCAAUGUGGCUGUGGCUAGACUGCC [U20G A26U], the self-cleavage was found to be 0.3.

Regarding GGCAGAGCUCAACACAGCGGGGCAACGUGGCUGUGGCUAGACUGCC [U20G A26C], the self-cleavage turned out to be 0.47.

In the case of GGCAGAGCUCAACACAGCGGGGCAAAGUGGCUGUGCCUAGACUGCC [U20G G36C], the self-cleavage was determined as 0.09.

Take GGCAGAGCUCAACACAGCGGGGCAAAGUGGCUGUGUCUAGACUGCC [U20G G36U]: the self-cleavage amounted to 0.07.

Regarding GGCAGAGCUCAACACAGCGGGGCAAAGUGGCUGUGACUAGACUGCC [U20G G36A], the self-cleavage worked out at 0.08.

Consider GGCAGAGCUCAACACAGCGGGGCAAAGUGGCUGUGGCUUGACUGCC [U20G A39U], for which the self-cleavage was found to be 0.56.

Take GGCAGAGCUCAACACAGCGGGGCAAAGUGGCUGUGGCUGGACUGCC [U20G A39G]: the self-cleavage worked out at 0.07.

For GGCAGAGCUCAACACAGCGGGGCAAAGUGGCUGUGGCUCGACUGCC [U20G A39C], the self-cleavage is 0.13.

Regarding GGCAGAGCUCAACACAGCGUAGCUAAGUGGCUGUGGCUAGACUGCC [G21A A24U], the self-cleavage came to 2.52.

GGCAGAGCUCAACACAGCGUAGCGAAGUGGCUGUGGCUAGACUGCC [G21A A24G]: the self-cleavage was 2.26.

Take GGCAGAGCUCAACACAGCGUAGCCAAGUGGCUGUGGCUAGACUGCC [G21A A24C]: the self-cleavage stood at 1.61.

With GGCAGAGCUCAACACAGCGUAGCAAAGUGGCUGUGGCUAGACUGCA [G21A C46A], the self-cleavage came to 1.96.

GGCAGAGCUCAACACAGCGGGGCAAAGUGGCUGUGGCUAGACUGUC [U20G C45U]: the self-cleavage was 1.62.

Consider GGCAGAGCUCAACACAGCGGGGCAAAGUGGCUGUGGCUAGACUGGC [U20G C45G], for which the self-cleavage stood at 0.25.

Turning to GGCAGAGCUCAACACAGCGGGGCAAAGUGGCUGUGGCUAGACUGAC [U20G C45A], the self-cleavage is 0.29.

GGCAGAGCUCAACACAGCGCGGCAAAGUGGCUGUGGCUAGACCGCC [U20C U43C]: the self-cleavage turned out to be 0.09.

Consider GGCAGAGCUCAACACAGCGCGGCAAAGUGGCUGUGGCUAGACGGCC [U20C U43G], for which the self-cleavage is 0.01.

Take GGCAGAGCUCAACACAGCGGGGCAAAGCGGCUGUGGCUAGACUGCC [U20G U28C]: the self-cleavage was 0.67.

On to GGCAGAGCUCAACACAGCGGGGCAAAGGGGCUGUGGCUAGACUGCC [U20G U28G], for which the self-cleavage was found to be 0.51.

On to GGCAGAGCUCAACACAGCGGGGCAAAGAGGCUGUGGCUAGACUGCC [U20G U28A], for which the self-cleavage was found to be 0.17.

As for GGCAGAGCUCAACACAGCGGGGCAAAGUGGCUGGGGCUAGACUGCC [U20G U34G], the self-cleavage stood at 0.14.

GGCAGAGCUCAACACAGCGGGGCAAAGUGGCUGAGGCUAGACUGCC [U20G U34A]: the self-cleavage was 0.06.

For the variant GGCAGAGCUCAACACAGCGGGGCAAAGUGGCUGCGGCUAGACUGCC [U20G U34C], the self-cleavage is 0.39.

On to GGCAGAGCUCAACACAGCGGGGUAAAGUGGCUGUGGCUAGACUGCC [U20G C23U], for which the self-cleavage was 0.54.

With GGCAGAGCUCAACACAGCGGGGAAAAGUGGCUGUGGCUAGACUGCC [U20G C23A], the self-cleavage is 0.48.

As to GGCAGAGCUCAACACAGCGGGGGAAAGUGGCUGUGGCUAGACUGCC [U20G C23G], the self-cleavage came out at 0.38.

Consider GGCAGAGCUCAACACAGCGUAGCAAAGUGGCUGUGGCUGGACUGCC [G21A A39G], for which the self-cleavage is 0.14.

With GGCAGAGCUCAACACAGCGUAGCAAAGUGGCUGUGGCUCGACUGCC [G21A A39C], the self-cleavage was 0.68.

For the variant GGCAGAGCUCAACACAGCGUAGCAAAGUGGCUGUGGCUUGACUGCC [G21A A39U], the self-cleavage is 1.82.

Take GGCAGAGCUCAACACAGCGGGGCAAAGUGGCUGUGGCUAAACUGCC [U20G G40A]: the self-cleavage is 0.06.

Turning to GGCAGAGCUCAACACAGCGGGGCAAAGUGGCUGUGGCUAUACUGCC [U20G G40U], the self-cleavage came out at 0.13.

Consider GGCAGAGCUCAACACAGCGGGGCAAAGUGGCUGUGGCUACACUGCC [U20G G40C], for which the self-cleavage was determined as 0.04.

For GGCAGAGCUCAACACAGCGUAGCAUAGUGGCUGUGGCUAGACUGCC [G21A A25U], the self-cleavage is 1.75.

Take GGCAGAGCUCAACACAGCGUAGCAGAGUGGCUGUGGCUAGACUGCC [G21A A25G]: the self-cleavage was 1.4.

With GGCAGAGCUCAACACAGCGUAGCACAGUGGCUGUGGCUAGACUGCC [G21A A25C], the self-cleavage was 2.37.

In the case of GGCAGAGCUCAACACAGCGGGGCAUAGUGGCUGUGGCUAGACUGCC [U20G A25U], the self-cleavage was determined as 1.21.

For the variant GGCAGAGCUCAACACAGCGGGGCAGAGUGGCUGUGGCUAGACUGCC [U20G A25G], the self-cleavage was 0.48.

For GGCAGAGCUCAACACAGCGGGGCACAGUGGCUGUGGCUAGACUGCC [U20G A25C], the self-cleavage was 0.19.

Regarding GGCAGAGCUCAACACAGCGUAGCAAAGUGGCUGUGGCUAGACUGCC [G21A], the self-cleavage is 2.19.

For GGCAGAGCUCAACACAGCGUAGCAAGGUGGCUGUGGCUAGACUGCC [G21A A26G], the self-cleavage is 1.94.

Regarding GGCAGAGCUCAACACAGCGUAGCAAUGUGGCUGUGGCUAGACUGCC [G21A A26U], the self-cleavage was determined as 1.89.

In the case of GGCAGAGCUCAACACAGCGGGGCAAAGUGGCUGUGGCUAGACGGCC [U20G U43G], the self-cleavage is 0.02.

Consider GGCAGAGCUCAACACAGCGGGGCAAAGUGGCUGUGGCUAGACAGCC [U20G U43A], for which the self-cleavage is 0.03.

On to GGCAGAGCUCAACACAGCGGGGCAAAGUGGCUGUGGCUAGACCGCC [U20G U43C], for which the self-cleavage was found to be 0.04.

For the variant GGCAGAGCUCAACACAGCGGGGCAAAGUGGCUGUGGGUAGACUGCC [U20G C37G], the self-cleavage came out at 0.07.

For the variant GGCAGAGCUCAACACAGCGGGGCAAAGUGGCUGUGGUUAGACUGCC [U20G C37U], the self-cleavage was 0.06.

In the case of GGCAGAGCUCAACACAGCGGGGCAAAGUGGCUGUGGAUAGACUGCC [U20G C37A], the self-cleavage is 0.02.

On to GGCAGAGCUCAACACAGCGUAGCAAAGUGGCUGUGGAUAGACUGCC [G21A C37A], for which the self-cleavage is 0.08.

With GGCAGAGCUCAACACAGCGUAGCAAAGUGGCUGUGGUUAGACUGCC [G21A C37U], the self-cleavage worked out at 0.07.

For the variant GGCAGAGCUCAACACAGCGUAGCAAAGUGGCUGUGGGUAGACUGCC [G21A C37G], the self-cleavage was 0.04.

Turning to GGCAGAGCUCAACACAGCGUAGCAAAGUGGAUGUGGCUAGACUGCC [G21A C31A], the self-cleavage amounted to 0.12.
